Results: publication PMC10746170

Tested on: T1, His6-GacA (Acinetobacter baumannii (strain ATCC 17978?)), ORF:4711fff2
T1 sequence: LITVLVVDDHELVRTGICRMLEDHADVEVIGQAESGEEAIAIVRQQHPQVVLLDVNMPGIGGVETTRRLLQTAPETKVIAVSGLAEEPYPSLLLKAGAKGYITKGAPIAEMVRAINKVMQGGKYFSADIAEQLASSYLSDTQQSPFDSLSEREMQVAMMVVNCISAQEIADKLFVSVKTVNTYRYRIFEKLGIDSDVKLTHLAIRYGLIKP
Assay: EMSA
Conditions: 20 mM Tris pH 8.0, 150 mM NaCl, 10 mM EDTA, 100 ug/mL BSA, 20 mM acetyl phosphate, 10% glycerin, 1 mM DTT; ~10 nM probe; 20 min, room temperature; 6% native …

Sequence	binding
CTCGTCATTATTAAGGCACGAGCTTGAATTAAACTGCACATCTAGTGTCAGTTGCTTATAGTGGCTATTGTCTTAGTATTTTTAAAAATCTGCAATATCTTTTTTTTAAAATTACCTAAGAAAATAAAAATATTTCAGAAAACTTTTTAGTTTTAAAAAATTTATAGTTTCTAATTATAAATAGCTTGCACAAAAAAACCAGCTTTAAAGCTGGTCTATTTTTAAATTATCACGGCGTATGAAGCTGTGTTTCCGTGTACGGACCTATTTCCGTTTCCTGTATTCCTCCGCTTCCGGAAT (double strand) [dotI promoter probe]	binds
TTCTATAAATAAGAAATAAAGAATTTATTAATGCGTATAGTGCACAGCAAATATTATAAATTAATAAAGGTTGGTTAAAGGTTTGTTTTACAAGTATATGAAATGAATTAAAATTTTTTAATTTTATTTTTACGGTGTAAGCTTGTGATAAATAAAAATTAATAGCTAGAAAACTTATTTAAAACTTTTTAGTCTAATAGCATATTAAATTAAATTGAGCTTTATTATTTATAGCGAAATATATAACACTCGCTGAAACTTGGTTGATTTTTAATAATCAAGATAATAAAGGAAAAGGAT (double strand) [PDC promoter probe]	binds
